Measurements published in patent US20240239864A1.

Molecular target: HLA-A2 (HLA-A*02:01) on cells (T2 cells; K562A2 cells) (human)
Test: T2 peptide-binding assay: T2 cells with peptide at 100 µg/mL overnight, surface HLA-A2 by flow cytometry (T2 only: 3.34E+05)

**Q.** For “HPV-16 E7 p11-19 peptide (from UniProt P03129 11-19)”, which Mean Fluorescence Intensity (surface HLA-A2) is on record?
**A.** Its Mean Fluorescence Intensity (surface HLA-A2) is 492000.
